Reference: the supplement of paper PMC10126150
± gives the standard deviation of the averaged measurements.

These sequences were tested on ATP (assay: switch fluorescence ratio, 500 uM ATP over buffer (Cy3 cluster intensity, sum of 5 cycles each) (fold (ratio)); higher = stronger signal-on switching upon ATP binding; sequences stand for … in TCGTCGGCAGCGTCAGATGTGTATAAGAGACAGTTTTTTTTTTTTTTTTTTTTTTTTT…TC). Conditions: aptamer strand: ATP DNA aptamer (quencher-CACCTGGGGGAGTATTGCGGAGGAAGG + anchor), 100 nM annealed; ATP concentration: 500 uM.
Method in brief: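 The fluorescence ratio divides summed target-cycle Cy3 intensity by summed buffer-cycle Cy3 intensity for each cluster and is averaged per switch-domain sequence. Cy3-labelled switching-strand clusters on a modified Illumina MiSeq flow-cell were annealed to 100 nM quencher-labelled ATP aptamer, then imaged in selection buffer and again after 15 min with 500 uM ATP at 22 °C. Five such cycles were run, with NaOH stripping and re-annealing between them, and clusters outside 100-1000 RFU were excluded.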
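Note: ATP exposure 15 min at 22 °C before imaging.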

Row | Sequence | switch fluorescence ratio
1 | GGTAGGGAAT | 0.974 ± 0.029
2 | GAAGTACAGC | 1.26 ± 0.031
3 | TCAATAATGA | 1.02 ± 0.027
4 | TTCCTATTGA | 0.99 ± 0.049
5 | CTTATGAAGC | 1.14 ± 0.012
6 | GGAAGCGGGT | 0.994 ± 0.042
7 | TCAGATAGCG | 0.98 ± 0.043
8 | AGCACGGGAA | 1.03 ± 0.03
9 | GCCTGATTTA | 0.95 ± 0.029
10 | GGAGCGAAGT | 1.16 ± 0.26
11 | GGGATTGGAG | 0.995 ± 0.016
12 | AAGGAGGGTT | 0.984 ± 0.025
13 | TGGAAGGTTT | 1.08 ± 0.11
14 | CAGGAGTACA | 1.03 ± 0.012
15 | TTAGGAGCTT | 1 ± 0.014
16 | GGGCCTGCGC | 1 ± 0.015
17 | GCTTTTGTAT | 0.991 ± 0.025
18 | CGGGAGTCAG | 1 ± 0.021
19 | GGTTAAAGAG | 0.9868 ± 0.008
20 | TTAGGGGGCT | 1 ± 0.033
21 | TTCATTTCGT | 1 ± 0.024
22 | TCAACTTTTG | 0.9856 ± 0.0022
23 | GGTGATAGGG | 0.98 ± 0.036
24 | TTATGATGAT | 1.006 ± 0.01
25 | TTTAGGGGTA | 0.996 ± 0.018

Row | Sequence | switch fluorescence ratio
26 | TTTTAGACAA | 1.18 ± 0.17
27 | CTGGACGGTG | 1.032 ± 0.0042
28 | TGTGTTATGG | 0.968 ± 0.049
29 | GGTTTTCCGT | 1.07 ± 0.051
30 | TTAGAACAAG | 1.01 ± 0.019
31 | CCGGGTTTAG | 1.03 ± 0.023
32 | AAGGGGACTC | 0.974 ± 0.04
33 | GGTATAGCGC | 1.01 ± 0.051
34 | GGTATTGAAG | 0.999 ± 0.024
35 | GGGGAACAGG | 1.05 ± 0.06
36 | GTAGGGTGTG | 0.973 ± 0.041
37 | TTCGGAATTA | 0.995 ± 0.0066
38 | TATTATTTGG | 1 ± 0.034
39 | GGGTGGTCGG | 0.978 ± 0.032
40 | GGCGAGAGGG | 0.979 ± 0.042
41 | TTTCTCCTTT | 1.04 ± 0.035
42 | TGGGGCTACA | 0.983 ± 0.056
43 | CATACAGGGG | 1.44 ± 0.067
44 | AGGTGTTCGG | 0.976 ± 0.019
45 | TTTGTGGGTG | 1.01 ± 0.019
46 | CACTGTCTGT | 0.98 ± 0.028
47 | GGGCTATTTG | 0.978 ± 0.013
48 | GCTAGCGGAC | 1.14 ± 0.025
49 | TTTGGGGACT | 0.984 ± 0.011
50 | AGAACGGTGG | 0.9693 ± 0.0096

Row | Sequence | switch fluorescence ratio
51 | GGACTATGCG | 0.985 ± 0.032
52 | ATAGGACTGA | 1.03 ± 0.023
53 | GGTGCCAAGG | 0.959 ± 0.02
54 | GGGCTGGAAT | 1 ± 0.02
55 | TGCTTGAA | 0.962 ± 0.021
56 | ACCGGGGAAT | 1.02 ± 0.027
57 | GAGGGGTAAT | 0.986 ± 0.012
58 | AAAGTCCTAG | 0.99 ± 0.016
59 | TTATTGGTCG | 1.02 ± 0.061
60 | TTATATCGTT | 0.998 ± 0.017
61 | AGAGTATGG | 0.965 ± 0.035
62 | ATTGGCAGGC | 1.05 ± 0.057
63 | CTTATTAATC | 1.01 ± 0.028
64 | CCCGGAAGTG | 1.24 ± 0.018
65 | CAGGGGAGAG | 0.999 ± 0.027
66 | TGAGAGGGAC | 1.05 ± 0.013
67 | AGGGGGACGG | 0.987 ± 0.023
68 | TCTGCGTAAG | 1.003 ± 0.0065
69 | GCAGGTTTTG | 0.987 ± 0.04
70 | TGTTGTAGGG | 1.02 ± 0.02
71 | TCGGTATTGG | 1.09 ± 0.1
72 | AACAGGGAGG | 0.993 ± 0.032
73 | GGGTTTACTT | 0.99844 ± 0.00094
74 | TCAGACACGG | 1.04 ± 0.039
75 | GTGGGATTGC | 0.9959 ± 0.0067

Row | Sequence | switch fluorescence ratio
76 | TTTATTAAGG | 1 ± 0.023
77 | AGGGGCCGGG | 1.05 ± 0.12
78 | TATCGAGTGG | 0.979 ± 0.058
79 | TTGGGGCTAG | 1.02 ± 0.026
80 | GGGTGACCAC | 0.986 ± 0.0044
81 | TTATTTATTG | 0.99 ± 0.016
82 | GCCTTGTGCG | 1.01 ± 0.018
83 | GAAGTTATTT | 0.981 ± 0.021
84 | GGTTTCAAAA | 0.99668 ± 0.00038
85 | GCGGCGGATC | 0.987 ± 0.038
86 | GCTGCCGGGG | 0.971 ± 0.046
87 | GGGGTACGTG | 1 ± 0.029
88 | TGCGGGATTA | 1.1 ± 0.18
89 | ACGGGGCTGT | 0.996 ± 0.017
90 | TTTATCTGTG | 0.954 ± 0.019
91 | AAGACGTGGT | 0.992 ± 0.008
92 | AAGGAAGCTT | 1.02 ± 0.1
93 | AAATAATTTT | 1.01 ± 0.027
94 | GCTTCAGCAA | 1.03 ± 0.055
95 | TAGGTTTTGG | 0.989 ± 0.035
96 | TTTTGCTTGG | 1.01 ± 0.015
97 | TTGCAACTTT | 1.12 ± 0.17
98 | TTTAGTTTGG | 1 ± 0.031
99 | GTGTAACGTT | 1 ± 0.042
100 | AGTTTCAGGC | 1.01 ± 0.031

Row | Sequence | switch fluorescence ratio
101 | GAAGACTGGG | 1.02 ± 0.051
102 | GCGGCAAGGG | 1.03 ± 0.035
103 | ACGATCTGTT | 1.0155 ± 0.00017
104 | CGAGTGTCGG | 0.984 ± 0.02
105 | AATGTGCCGG | 1.01 ± 0.019
106 | CTAAATAGAA | 0.983 ± 0.074
107 | CGGTCTGTTA | 1.04 ± 0.11
108 | ATCCACGCTA | 1.45 ± 0.022
109 | TTTAAACGCT | 0.997 ± 0.036
110 | AGTATTGGGG | 0.999 ± 0.025
111 | TTCTGACGG | 1.48 ± 0.55
112 | TGTAAGGGTT | 0.994 ± 0.027
113 | GGAGTGACGG | 0.9979 ± 0.0024
114 | TTTGACATTT | 1.02 ± 0.03
115 | GGCGTCGACG | 1.02 ± 0.11
116 | TCCCGGGTCT | 0.992 ± 0.029
117 | ATATGCGGGG | 0.949 ± 0.011
118 | CAAGGGGTT | 1.02 ± 0.068
119 | CCCGTTTGGG | 0.981 ± 0.023
120 | ATTATAGTTT | 1.03 ± 0.049
121 | TTCCGTTTGA | 1.24 ± 0.42
122 | TGCCGGGGGT | 1.03 ± 0.088
123 | GGGGACTGAG | 0.983 ± 0.029
124 | TAGGTGCCTG | 1.07 ± 0.03
125 | TTGCGAGCTT | 0.986 ± 0.061

Row | Sequence | switch fluorescence ratio
126 | GGAGTTTCGT | 0.988 ± 0.023
127 | GCTTGTGGAG | 1.02 ± 0.013
128 | CTGTGGGGGC | 1.01 ± 0.016
129 | ATCTTTTTCT | 1.03 ± 0.052
130 | GGGTGGGGTG | 1 ± 0.018
131 | AAATTGGGCA | 0.997 ± 0.029
132 | TGTAGGGACG | 0.957 ± 0.12
133 | AAGGGGTTTG | 0.969 ± 0.032
134 | TTTTTAACTA | 0.993 ± 0.012
135 | TTAATTTAAG | 0.992 ± 0.038
136 | GGTGGCGTAC | 1.018 ± 0.01
137 | GGAAAGGGGC | 0.95 ± 0.053
138 | TGGGGCTACC | 1.06 ± 0.093
139 | GTGTTTTGAA | 1.01 ± 0.022
140 | CTGAAGGGCG | 0.979 ± 0.044
141 | CATGCTAGAG | 0.99 ± 0.025
142 | TTGCACCGGT | 1.034 ± 0.0055
143 | GTTTTTTGTT | 0.999 ± 0.043
144 | GAGTCCATTG | 1.02 ± 0.026
145 | ACAAATGGGA | 1.02 ± 0.044
146 | AGCTGATTC | 1.031 ± 0.0099
147 | TGGGTCAATG | 0.9822 ± 0.0078
148 | GGAAGCGAAC | 1.47 ± 0.067
149 | TTAGAAAAAG | 0.9811 ± 0.0052
150 | TTATAACGTA | 1.07 ± 0.044

Row | Sequence | switch fluorescence ratio
151 | GATTGGGAGG | 1.03 ± 0.034
152 | TGCACGCAGC | 1.25 ± 0.09
153 | AACGGGCCAC | 1.079 ± 0.0077
154 | AAGGGGATTC | 1.07 ± 0.012
155 | GATGATGTCC | 0.96 ± 0.01
156 | TATCACCGGC | 1.09 ± 0.031
157 | AGACGAGTCT | 0.974 ± 0.03
158 | ATTGGGTAGG | 0.993 ± 0.025
159 | AGAAGGGGCG | 1.02 ± 0.06
160 | CGGTTATTGG | 0.958 ± 0.041
161 | GCTGTGAGGT | 0.979 ± 0.0018
162 | TAGGAACGAG | 1 ± 0.024
163 | TGATGCATCG | 1 ± 0.034
164 | ATTGAATTAA | 1.04 ± 0.02
165 | ACCCTTGGGG | 1.02 ± 0.064
166 | TTGGGCTCTA | 1.002 ± 0.0012
167 | CGAAGTGGTC | 0.995 ± 0.059
168 | TTGAAGTAGT | 1.03 ± 0.1
169 | CGAAGGGCG | 1.03 ± 0.029
170 | CTAGGTTCGC | 1.01 ± 0.012
171 | TAATCTTAGA | 0.99489 ± 5.2e-05
172 | TGGCGCCCGT | 1.08 ± 0.11
173 | ACAGTCGGCG | 1.03 ± 0.021
174 | TTAGCGACGG | 0.992 ± 0.03
175 | TCCTTGGGGT | 1.73 ± 0.97

Row | Sequence | switch fluorescence ratio
176 | TGAAATGGGA | 1.0074 ± 0.00077
177 | AGTTCTGTTT | 0.994 ± 0.047
178 | ACAGCTCGAG | 1 ± 0.02
179 | TTTATGGCGT | 1.008 ± 0.0097
180 | ATTGGAATGC | 1.26 ± 0.047
181 | ATTGAATTGT | 0.991 ± 0.037
182 | GAGTCTGCGT | 1.08 ± 0.026
183 | CATCCGGGGT | 2.04 ± 0.57
184 | CCTTTGGGGT | 1.69 ± 1.2
185 | GGTTCATACG | 1.008 ± 0.0041
186 | CATCTTATGA | 0.99 ± 0.0043
187 | AAGCCTTTAG | 0.974 ± 0.047
188 | GATAGAAGGA | 1.02 ± 0.033
189 | CTCTAATGAA | 0.992 ± 0.037
190 | ATGACAGAAG | 1.03 ± 0.05
191 | GCTGTTTGGG | 0.997 ± 0.014
192 | GATCCTGGGC | 1.03 ± 0.015
193 | GGGTACGGGG | 1 ± 0.03
194 | TTAAAGTGAT | 0.995 ± 0.036
195 | TTTAGTAGGG | 1 ± 0.027
196 | ACGAGTACGG | 1.1 ± 0.025
197 | AGCAAGTCCT | 1.12 ± 0.015
198 | TTCAGTGGGG | 0.991 ± 0.039
199 | TTATGTCTTC | 0.984 ± 0.026
200 | CAGGGAGAAT | 1.01 ± 0.019
